The record followed here is a protein production outcome set (Wang et al. 2014).
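Further: failed if final PepcDB status was selected cloned or expressed and not failed if soluble or beyond.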

This data set is described as follows: label from the status in PepcDB records.
With “MDPSLHARPHPRRRLRCALLALACGTGAAHAATPPPYLQTQRSFEQRAADLVSRMTLEEKAAQMQNAAPAIPRLGVPAYDWWNEALHGVARAGGATVFPQAIGMAATFDLPLMHEVATAISDEARAKHHRFLRQHQHARYQGLTFWSPNINIFRDPRWGRGQETYGEDPFLTARMGVTFVQGLQGEGSDAPKNAQGERYRKLDATAKHFAVHSGPEADRHHFDARPSQRDLYETYLPAFEALVKDGKVDAVMGAYNRVYGESASASKFLLQDVLRQQWGFKGYVVSDCWAIVDVWKHHKIVATREQAAALAVTHGTELECGEEYSTLPAAVHQGLIDEAQIDTALQTLMTARMRLGMFDPPGQLPWSKIPASVNQSPAHDALARRTARESLVLLKNDGLLPLSRATLKRIAVIGPTADDTMALLGNYYGTPAAPVTVLQGIRAAAPNAQVLYARGADLVEGRNDPAATPLIEPHYLRPSANSPERGLRGEYFRNRDLSGKPALVRVDAQIGFTWDRGSPTDNLLARGEAGPSEAVPADNFSIRWSGQLVPPTTGTYHLEAAADDGVRLYLDGKPVIDRWSTSDRLHADGVDVQLQAGRSYDLRLDYFEGERDAAVRLAWRQPGAKPPLQEALDVARSADVVVFVGGLTGDVEGEEMKVSYPGFAGGDRTDLRLPKPQRELLEALQATGKPVVAVLTAGSALAVDWAQQHVPAILLAWYPGQRGGTAVADTLFGDANPGGRLPVTFYKESETLPAFDDYAMHGRTYRYFGGTPLYPFGHGLSYTQFAYSDLRLDRSTLTADGALTATVAVKNTGQRAGDEVVQLYLHPLKPQRERAGKELRGFQRLALQPGQQRELRFTINAKDALRIYDAQRKAYTVDPGAYEVQIGASSADIRARQRFTVTDK”, the protein production entry is reported as “failed”.

Regarding “PDVDGMITLKVDNLTYRTSPDSLRRVFEKYGRVGDVYIPREPHTKAPRGFAFVRFHDRRDAQDAEAAMDGAELDGRELRVQVARYGRRDL”, the protein production result is on record as “not failed”.

Turning to “SSVVKSIELVLPEDRIYLAGSSIKGQVILTLNSTLVDPIVKVELVGRGYVEWSEEAGASCDYSRNVICNNKADYVHKTKTFPVEDNWLSAGSHTFDFHFNLPPRLPSTFTSKFGHVFYFVQASCMGREHILAKKRMYLLVQGTSTFHKETPFQNPLFVEAEEKVSYNCCRQGTVCLQIQMERNTFTPGEKVVFTTEINNQTSKCIKTVVFALYAHIQYEGFTPSAERRSRLDSSELLRQEANTPVTRFNTTKVVSTFNLPLLLSVSSSTQDGEIMHTRYELVTTVHLPWSLTSLKAKVPIIITSASVDSAICQLSEDGVLPVNPDHQN”, the protein production result is “not failed”.

For “MGRVRLQANQMEWRPGIYVGEGTTIASSAQLEPPLWIGQHCYIGEEVQLKAGTVIGDESRIEAGACLDRAVVWNRVQIGQRSHLEGCVLADGVRLERHVQIHEGAVIGSGCRLQEEAQVQAEVRIWPRKQIEAGAILEHHHHHH”, the protein production result is given as “failed”.

In the case of “MNATHDLQSTPSRLRRFACMMYEGVLLFGVVFIASYLFDTLTQSKHGLMLRDGRQVWLFLVIGLYFVLCWRRRGQTLPMKTWNIRLVDRDGQPPSTPRLVLRYVLAWPLPLGAAALVWLASSLTGWRSVDMFIVLAPFAIFAWSWVDPDGQFLHDRLLGTRLRNAPPRAARAVAGT”, the protein production entry was “failed”.

With “MIPEHLSIYTAYNANIDAIVKLNQETIQNLINAFDPDEVKRRIEEYPREINEPIDFVARLVHTLKLGKPAAVPLVNEKMNEWFDKTFRYEEERLGGQAGIIANTLAGLKIRKVIAYTPFLPKRLAELFKKGVLYPVVENGELQFKPIQEAYREGDPLKINRIFEFRKGLKFKLGDETIEIPNSGRFIVSARFESISRIETREDIKPFLGEIGKEVDGAIFSGYQGLRTKYSDGKDANYYLRRAKEDIIEFKEKDVKIHVEFASVQDRKLRKKIITNILPFVDSVGIDEAEIAQILSVLGYRELADRIFTYNRLEDSILGGMIILDELNFEILQVHTTYYLMYITHRDNPLSEEELAKSLEFGTTLAAARASLGDIRGPDDYKVGLKVPFNERSEYVKLRFEEAKSRLRMREYKVVVIPTRLVQNPVLTVGLGDTISAGAFLTYLEFLKRH”, the protein production entry is “not failed”.

For the sequence “RISWVGEAVKTDGKKSYYKKVCIDAETLEVGDCVSVIPDDSSKPLYLARVTALWEDSSNGQMFHAHWFCAGTDTVLGATSDPLELFLVDECEDMQLSYIHSKVKVIYKAPSENWAMEGGMDPESLLEGDDGKTYFYQLWYDQDYARFESPPKTQPTEDNKFKFCVSCARLAEMRQKEIPRVLEQLEDLDSRVLYYSATKNGILYRVGDGVYLPPEAFTFNIKLSSPVKRPRKEPVDEDLYPEHYRKYSDYIKGSNLDAPEPYRIGRIKEIFCPKKSNGRPNETDIKIRVNKFYRPENTHKSTPASYHADINLLYWSDEEAVVDFKAVQGRCTVEYGEDLPECVQVYSMGGPNRFYFLEAYNAKSKSFEDPPNHARSP”, the protein production entry is given as “failed”.

As to “MTPYRRILLIMTEAQANAALSRAMALSAASGASLHVLGIHESGVLRLPHELQEAPLHSASFMHFSTELKALLDEQSFVGARPGFEAVETSNPRDQLPACIARYAPDLVIKGCPGHSLLEQIARTSLDQALLH”, the protein production entry was “failed”.

Take “MKIVIAPDSYKESLSALEVATAIEQGFREIWPDADYLKLPLADGGEGTVEAMVEATAGRIVHVEVTGPLGHRVNAFYGLSGDARSAFIEMAAASGLEQVPPAQRDPLKTTSWGTGELIRHALDAGVEHIIIGIGGSATNDGGAGMVQALGARLRDAQGNDIAQGGIGLETLASIDISGLDKRLSACHIEVACDVTNPLTGKEGASAVFGPQKGATPEMIERLDTALTRYAHLIARDLHVDVLDLAGGGAAGGMGAALYAFCGAQLRRGIEIVTDALHLEACLADADLVITGEGRIDSQTIHGKVPIGVANIAKRYNKPVIGIAGSLTADVSVVHEHGLDAVFSVIYTICTLEDALKNASENVRMTARNVAATLKAGQQLR”: the protein production entry is reported as “not failed”.

Take “STMSGYLYRSKGSKKPWKHLWFVIKNKVLYTYAASEDVAALESQPLLGFTVTLVKDENSESKVFQLLHKGMVFYVFKADDAHSTQRWIDAFQEGTV”: the protein production result is on record as “not failed”.

Consider “MNMSTDRIERRIVLHAPRSRVWRALTNADEFGAWFRVDLAGQAFEAGRRVEGRITYPGYEHLVLQMRIERIEPEHHFSYRWHPAAVDPAVDYSQEAPTLVVFELADAEGGPLLTVVESGFDALPVERRADAFRMNSGGWDEQMTNIAAHVDAR”, for which the protein production result is on record as “failed”.

“MTGSQETRITILDAMTANQIAAGEVVERPASVVKELVENSLDAAARHITVEIEGGGLQLIRVRDDGRGIEPEDAPLAFARHATSKIRRAADLARITTLGFRGEALASIAAVARVEMATRPPGRPGGTLVRVAGGKPPEVTETGCPPGTSVTVKDLFYNTPARRQYLKKPSTEARAIVATVERLALGHPGVAFSLSLDGRRSLATPGNGDLQAVLAALYGLEIGRELLPFNGSGAGWSLHGFTSPPWLHRSNRDQQVLLINGRYITNRLLTWAIESCYRNVIPAGRHPLFVLHLAVDPGEVDVNVHPAKLEVRLQREQDLARQVTNLVKGALFTPRAVAPATISRSGDRKGAGSAPPVQQGFTFREPDKQARYWGEYVLRERARENREPEWPEKTGENTGAIKTREVPEGNGPVERDKPDPIGPETPAEETGKQVLPPLRALGQVFNTYILAGGEDGLYIIDQHAAHERCRYEALVKEGTPGSHPAQMLEPPLPLHLAPDMQVKLIDQIITLRELGFIIEEFGTGVFLLRSVPLGIPPGKEREVLEDFLAESTLPAPERLLKLIACHGAIKAGQSLAGAEMQKLLDDLRGVDHPYTCPHGRPAVVRLDEAQLARYFHRHLK”: the protein production entry is “failed”.

Take “MTLSKQLKTYITERFKLNYQDTWSCETVDAVAEDVLPEKYIKNSPLEHKILNTFTYYNDELHEISIYPFLCYLDKELIAIGYLDNFDLDFIFLNDTHQIIIDERYLLQKGGELEHHHHHH”: the protein production entry was “failed”.

Take “MSKMRFFALQELSNRKPLEITTPSNKLSDYYASHVFDRKKMQEYLPKEAYKAVVDATEKGTPISREMADLIANGMKSWAKSLNVTHYTHWFQPLTDGTAEKHDGFIEFGEDGEVIERFSGKLLIQQEPDASSFPNGGIRNTFEARGYTAWDGSSPAFVVDTTLCIPTIFISYTGEALDYKTPLLKALAAVDKAATEVCQLFDKNITRVFTNLGWEQEYFLVDTSLYNARPDLRLTGRTLMGHSSAKDQQLEDHYFGSIPPRVTAFMKELEIECHKLGIPVKTRHNEVAPNQFELAPIFENCNLANDHNQLVMDLMKRIARKHHFAVLFHEKPYNGVNGSGKHNNWSLCTDTGINLFAPGKNPKGNMLFLTFLVNVLMMVHKNQDLLRASIMSAGNSHRLGANEAPPAILSIFLGSQLSATLDEIVRQVTNSKMTPEEKTTLKLGIGRIPEILLDTTDRNRTSPFAFTGNRFEFRAAGSSANCAAAMIAINAAMANQLNEFKASVDKLMEEGIGKDEAIFRILKENIIASELIRFEGDGYSEEWKQEAARRGLTNICHVPEALMHYMDNQSRAVLIGERIFNETELACRLEVELEKYTMKVQIESRVLGDLAINHIVPIAVSYQNRLLENLCRMKEIFSEEEYEVMSADRKELIKEISHRVSAIKVLVRDMTEARKVANHKENFKEKAFAYEETVRPYLESIRDHIDHLEMEIDDEIWPLPKYRELLFTK”: the protein production entry was “not failed”.

In the case of “MAKYQSMLVVIDPNQDDQPALRRAVYLHQRIGGRIKAFLPIYDFSYEMTTLLSPDERTAMRQGVIAQRTAWIREQAKFYLESGVPIDVKVVWHNRPFEAIIQEVVSEKHDLLLKMAHQHDKLEAVIFTPTDWHLLRKCPCPVWMVKDQPWPEGGKALVAVNLASEENYHNTLNEKLVRETLSLAEEVNHTEVHLIGAYPVTPINIAIELPDFDPSVYNDAIRGQHLLAMKALRQKFGIDEKFTHVEKGLPEEVIPDLAEHLQAGIVVLGTVGRTGLSAAFLGNTAEQVVDHLRCDLLVLKPEAYQTPVELDDDDDD”, the protein production result is listed as “failed”.

Consider “MSDINKPFLVVIVGPTASGKTELSIELAKQINGEIISGDSMQVYKQMDIGTAKVTNEEMDGIPHYMIDILNPDDSFSVYDFKLRAQALIEDITSRGKIPIIAGGTGLYIQSLIYDYPFDDETVSKEVEQKTQLQLQKLEPLTNQEVHDYLATFDPQSAKDIHPNNRKRVLRAIEYYLNTKKLISSRKKVQQFTENYDTLLIGIEMSRKTLYSRINKRVDIMLGHGLFNEVKNLVEQGYESTQSMQAIGYKELVPVVNGELSIDQAVETLKQHSRQYAKRQLTWFKNKLTVQWFNRETMSLQMMLDEITTQINKRSSKHDCKPQHPRSSTREL”, for which the protein production entry is “failed”.

With “MYLKRSDGPSPGTLSLAARLTVLSTLATTGVLLFAIVFQFLALVSDLEFEDNDFIIDKIRVIEAIIVRYPEDRVHLEQEVQWEGSMREDSRYLVRIADARKNIIMETRGMDRIAPPAMFPRPARDTHAIGRGKKLKTPEGRVYLVNAAWTDGGRAPDSRQIQVALDVTEEEEMLEGYKQKMAFVFLAGLFLSAGLNVVVVRRGLRPLVQLTETAGRIDVTTLHERIDARVWPRELARFAAAFDAMLTRLESSFERLESSSANLAHEIRTPLNILRGEAEVTLSRARSPEEYRRVIESSLEEYERLSRLIDNILFLARAEQRIEPVPLDAGHELELLQDYYGTLAEEKGIAISCTGEGTISADPLLFQRAVGNVLSNAIRYTPAGGTITVSIDRADDGAALLTVIDTGIGISADDLPRVFDRFYRSSEARTLNAQGTGLGLAIVRSIMELHRGSVTIDSAPGRGTAVTLRFPLASQ”, the protein production entry is “failed”.

Consider “MVSRRGVAGLDFDNRVRSLINTFGLVSVHVQCYFIISDLCLRDSSHQGIFLVSVTRSGCLMVHDFESLYCQSKLGPGSAEDESKHVVHFSYPPGREFDVARWNPSNQNEVACTSRKHDQVLIFDISYMSPKPTEVLQTRQKLSIIGRKISRGLSDVAITSDEDSRIFSPDTLGMVHVWDRRAGVSPCIELSTDRYDSIKSIQIYVDNQTIFGAGKEGIIHIWDLRGGRNSSAFQSRKDVSLTRGELELAMAMSQLPLASLHLAPKLQKIASLKAQSEIVPKEIHSIDVNPSSPHQLAFHLDDGWSGVLDIYKSEVTHVHCPPPAWLDGSNSSADLILRKPSWLPTSSIYVVGSMSEKGIHVLDFHPSSRSPCHVDYDEDTQRNEKRDKCNHRNKFVSLSETVTGCAAHPLNGMIVAGTQNSSLLLIAQMHCSSSSETAEGEL”, for which the protein production result is recorded as “failed”.
